Test results from paper PMC10682670.

Legend:
[1] = biological target: CMP-Ang1 fusion protein (encoded by mRNA-59) (human); assay: non-reducing PAGE with immunoblot; concentrated serum-free supernatant of mRNA-transfected HeLa cells, non-reducing PAGE, Western blot with Ang1-specific antibody
[2] = biological target: COMP-Ang1 fusion protein (encoded by mRNA-76), secreted by HeLa cells (not stated ('humanized' fusion protein) | human); assay: as above

Row | stoichiometry N [1] | stoichiometry N [2] | Substance
1 | 2 | – | CMP-Ang1 fusion protein (encoded by mRNA-59) (ligand)
2 | – | 5 | COMP-Ang1 fusion protein (encoded by mRNA-76), secreted by HeLa cells (ligand)
